# Measurements published in the supplement of paper PMC6757056.
# ± gives the standard deviation of the averaged measurements.
# B1: library; a variant is named by its letters at N, in order (parent)
# chain: GCUGUCACCGAGAAACUGUGAAGUAUAUCUUAAACCUGGGCACUUAAAAGAUAUAUGGAGUUAGUAGUGCAACCUGCUCGGUCUGAUGAGUCCNNNNNNGGACGAAACAGC
# Experiments:
# cyclic di-GMP [1] = variants of: B1; assay: normalized RNA/DNA level without ligand (relative to sTRSVctl = 100) (log10 (% of sTRSVctl)); HEK293T; ligand: cyclic di-GMP (c-di-GMP-II aptamer); higher = less ribozyme self-cleavage, higher mRNA level; conditions: reporter: mCherry (pCS4076), ligand present: no
# How it was run: (§1)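 HEK293T cells received ligand, where used, 1 h before being transfected with 4 µg per 6-well well of library plasmids encoding reporter-linked ribozyme switches. After 72 h, RNA was extracted with EDTA and sequenced. RNA level was derived from RNA reads per DNA read, normalized to a spiked-in non-cleaving sequence or the top sequences, then scaled and log-transformed. Values were ×100 then log10, the top set was 25 sequences, and the minimum was 100 DNA reads.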
# cyclic di-GMP [2] = variants of: B1; assay: normalized RNA/DNA level with ligand (relative to sTRSVctl = 100) (log10 (% of sTRSVctl)); HEK293T; ligand: cyclic di-GMP (c-di-GMP-II aptamer); ligand concentration (+) RNA-Seq: 1 mM; higher = less ribozyme self-cleavage, higher mRNA level; conditions: reporter: mCherry (pCS4076), ligand present: yes
# How it was run: as §1
Variant,normalized RNA/DNA level without ligand (log10) (cyclic di-GMP [1]),normalized RNA/DNA level with ligand (log10) (cyclic di-GMP [2])
UCGGUU,1.61 ± 0.093,1.79 ± 0.082
UCGGUG,1.68 ± 0.049,1.78 ± 0.13
GCGCCU,1.774 ± 0.0061,1.88 ± 0.083
GCGCCG,1.781 ± 0.0019,1.9 ± 0.1
GCGCCA,1.699 ± 0.0061,1.84 ± 0.13
GCGCCC,1.79 ± 0.025,1.89 ± 0.038
UCGGGU,1.64 ± 0.09,1.79 ± 0.13
UCGGGA,1.46 ± 0.035,1.72 ± 0.11
UCGGGC,1.83 ± 0.035,1.94 ± 0.086
UCGGGG,1.69 ± 0.06,1.83 ± 0.11
CCGGUC,1.622 ± 0.0071,1.83 ± 0.073
CCGGGC,1.821 ± 0.013,1.93 ± 0.12
CCGGGU,1.69 ± 0.066,1.81 ± 0.15
CCGGGA,1.51 ± 0.068,1.69 ± 0.089
UCGCGC,1.73 ± 0.029,1.89 ± 0.093
UCGCGG,1.78 ± 0.051,1.85 ± 0.14
UCGCGU,1.66 ± 0.083,1.84 ± 0.089
ACGCCU,1.64 ± 0.099,1.8 ± 0.036
ACGCCA,1.675 ± 0.012,1.87 ± 0.09
ACGCCG,1.74 ± 0.046,1.85 ± 0.067
CCGCGU,1.69 ± 0.02,1.84 ± 0.17
CCGCGG,1.73 ± 0.044,1.85 ± 0.056
CCGCGA,1.59 ± 0.053,1.76 ± 0.07
CCGCGC,1.74 ± 0.026,1.87 ± 0.098

Variant,normalized RNA/DNA level without ligand (log10) (cyclic di-GMP [1]),normalized RNA/DNA level with ligand (log10) (cyclic di-GMP [2])
CCGCAA,1.447 ± 0.014,1.68 ± 0.14
CCGCAG,1.54 ± 0.054,1.67 ± 0.12
CCGCAU,1.6 ± 0.035,1.77 ± 0.096
GCGCUG,1.77 ± 0.049,1.84 ± 0.14
GCGCUU,1.61 ± 0.043,1.78 ± 0.13
CCGGAG,1.31 ± 0.13,1.52 ± 0.14
ACGCUU,1.37 ± 0.076,1.6 ± 0.17
ACGCUG,1.62 ± 0.039,1.79 ± 0.089
ACGCUA,1.53 ± 0.026,1.72 ± 0.13
CCGAUU,1.54 ± 0.052,1.73 ± 0.12
GCGUCC,1.63 ± 0.055,1.81 ± 0.047
GCGUCU,1.67 ± 0.03,1.83 ± 0.1
GCGUCA,1.624 ± 0.0059,1.79 ± 0.15
UCGCAC,1.697 ± 0.015,1.86 ± 0.084
UCGCAU,1.572 ± 0.0067,1.76 ± 0.092
UCGCAG,1.762 ± 0.0034,1.87 ± 0.13
UCGGAC,1.66 ± 0.029,1.8 ± 0.13
ACGCAC,1.61 ± 0.018,1.79 ± 0.11
ACGCAA,1.47 ± 0.075,1.64 ± 0.11
ACGCAU,1.42 ± 0.15,1.68 ± 0.075
UCGUAG,1.63 ± 0.059,1.82 ± 0.11
UCGUAU,1.53 ± 0.068,1.76 ± 0.12
UCGUAA,1.44 ± 0.1,1.64 ± 0.15
GCGCGC,1.64 ± 0.07,1.8 ± 0.11

Variant,normalized RNA/DNA level without ligand (log10) (cyclic di-GMP [1]),normalized RNA/DNA level with ligand (log10) (cyclic di-GMP [2])
GCGCGU,1.59 ± 0.1,1.75 ± 0.044
GCGCGG,1.796 ± 0.0029,1.87 ± 0.087
ACGUAC,1.58 ± 0.053,1.78 ± 0.077
ACGUAG,1.55 ± 0.021,1.72 ± 0.14
ACGGUC,1.637 ± 0.014,1.77 ± 0.17
ACGGUG,1.6002 ± 0.00028,1.74 ± 0.1
UCGCCG,1.81 ± 0.091,1.95 ± 0.14
UCGCCU,1.76 ± 0.029,1.92 ± 0.12
GCGGCA,1.82 ± 0.032,1.9 ± 0.12
GCGGCU,1.75 ± 0.024,1.91 ± 0.14
GCGGCC,1.73 ± 0.039,1.86 ± 0.15
GCGGCG,1.842 ± 0.0045,1.9 ± 0.057
ACGCGU,1.504 ± 0.0098,1.71 ± 0.14
ACGCGC,1.629 ± 0.016,1.79 ± 0.11
ACGCGA,1.4 ± 0.11,1.62 ± 0.11
ACGGAC,1.52 ± 0.075,1.73 ± 0.09
CCGUCG,1.68 ± 0.0046,1.82 ± 0.13
CCGUCA,1.592 ± 0.009,1.79 ± 0.047
CCGUCU,1.6 ± 0.061,1.78 ± 0.12
GCGGGG,1.74 ± 0.035,1.83 ± 0.12
GCGGGA,1.62 ± 0.078,1.72 ± 0.068
GCGGGU,1.769 ± 0.0058,1.87 ± 0.12
GCGGGC,1.53 ± 0.028,1.69 ± 0.064
UCGAUG,1.54 ± 0.1,1.72 ± 0.14

Variant,normalized RNA/DNA level without ligand (log10) (cyclic di-GMP [1]),normalized RNA/DNA level with ligand (log10) (cyclic di-GMP [2])
CCGCCU,1.7 ± 0.0065,1.84 ± 0.099
CCGCCG,1.738 ± 0.01,1.82 ± 0.1
ACGAUC,1.56 ± 0.074,1.75 ± 0.085
ACGGGU,1.42 ± 0.083,1.58 ± 0.092
ACGGGG,1.693 ± 0.015,1.82 ± 0.1
ACGGGC,1.7 ± 0.073,1.88 ± 0.1
ACGGCC,1.78 ± 0.063,1.87 ± 0.13
ACGGCU,1.56 ± 0.018,1.75 ± 0.12
ACGGCA,1.648 ± 0.011,1.77 ± 0.1
ACGGCG,1.75 ± 0.067,1.86 ± 0.1
ACGUCG,1.605 ± 0.011,1.81 ± 0.12
ACGUCC,1.75 ± 0.042,1.93 ± 0.12
ACGUCA,1.61 ± 0.033,1.76 ± 0.13
ACGUCU,1.55 ± 0.087,1.74 ± 0.085
GCGUAC,1.34 ± 0.086,1.52 ± 0.12
GCGUAA,1.44 ± 0.091,1.61 ± 0.096
CCGGCC,1.77 ± 0.04,1.86 ± 0.15
CCGGCG,1.69 ± 0.023,1.77 ± 0.05
CCGGCA,1.7 ± 0.026,1.79 ± 0.12
UCGUCG,1.74 ± 0.03,1.88 ± 0.085
UCGUCA,1.644 ± 0.00093,1.82 ± 0.11
UCGUCU,1.72 ± 0.043,1.89 ± 0.094
UCGUCC,1.794 ± 0.01,1.9 ± 0.081
GCGGUA,1.55 ± 0.046,1.69 ± 0.09

Variant,normalized RNA/DNA level without ligand (log10) (cyclic di-GMP [1]),normalized RNA/DNA level with ligand (log10) (cyclic di-GMP [2])
GCGGUG,1.6984 ± 0.00046,1.79 ± 0.13
GCGGUC,1.29 ± 0.072,1.52 ± 0.09
UCGCUC,1.742 ± 0.011,1.87 ± 0.14
UCGCUA,1.46 ± 0.026,1.7 ± 0.047
UCGCUU,1.66 ± 0.018,1.84 ± 0.11
UCGCUG,1.69 ± 0.0043,1.84 ± 0.082
GCGAUG,1.59 ± 0.06,1.79 ± 0.096
GCGAUU,1.47 ± 0.024,1.69 ± 0.19
GCGGAU,1.43 ± 0.097,1.63 ± 0.11
CCGCUG,1.28 ± 0.15,1.56 ± 0.12
CCGCUC,1.66 ± 0.029,1.85 ± 0.094
CCGCUA,1.43 ± 0.078,1.68 ± 0.091
CCGUGA,1.51 ± 0.067,1.7 ± 0.078
UCGGCC,1.85 ± 0.024,1.95 ± 0.054
UCGGCG,1.87 ± 0.015,1.96 ± 0.084
GCGCAA,1.57 ± 0.044,1.72 ± 0.13
GCGCAC,1.51 ± 0.075,1.66 ± 0.075
GCGCAG,1.78 ± 0.023,1.9 ± 0.094
CCGUAC,1.62 ± 0.027,1.75 ± 0.11
CCGUAG,1.32 ± 0.11,1.55 ± 0.14
